Residue numbers refer to the chain shown, from its start. Names may count otherwise. “And” between values parts separate entries of the source, which are not always exact repeats. Equal values may be shown once.
B1: canine IgGB Fc (CH2-CH3) T250E with N-terminal SASA tag (Fc fusion, part only; not given: SASA tag, not shown: another chain or arm of the molecule; small tags and cut ends)
Fc: APEMLGGPSVFIFPPKPKDELLIARTPEVTCVVVDLDPEDPEVQISWFVDGKQMQTAKTQPREEQFNGTYRVVSVLPIGHQDWLKGKQFTCKVNNKALPSPIERTISKARGQAHQPSVYVLPPSREELSKNTVSLTCLIKDFFPPDIDVEWQSNGQQEPESKYRTTPPQLDEDGSYFLYSKLSVDKSRWQRGDTFICAVMHEALHNHYTQESLSHSPGK
B2: canine IgGB Fc (CH2-CH3) T250Q with N-terminal SASA tag (Fc fusion, part only; not given: SASA tag, not shown: another chain or arm of the molecule; small tags and cut ends)
Fc: B1 Fc with E20Q
B3: anti-NGF canine IgGB antibody, Fc variant N434R + D312P (antibody, part only; not given: anti-NGF variable domains and light chain, not shown: another chain or arm of the molecule)
Fc: B1 Fc with E20T, D82P, N206R
B4: anti-NGF canine IgGB antibody, Fc variant A426H + T286L (antibody, part only; not given: Anti-NGF variable domains, not shown: another chain or arm of the molecule; small tags and cut ends)
Fc: B1 Fc with E20T, T56L, A198H
B5: anti-NGF canine IgGB antibody, Fc variant N434Y (antibody, part only; not given: Anti-NGF variable domains, not shown: another chain or arm of the molecule)
Fc: B1 Fc with E20T, N206Y
B6: anti-NGF canine IgGB antibody, Fc variant A426Y + D312P (antibody, part only; not given: anti-NGF variable domains and light chain, not shown: another chain or arm of the molecule; small tags and cut ends)
Fc: B1 Fc with E20T, D82P, A198Y
B7: anti-NGF canine IgGB antibody, Fc variant N434R + Y436H (antibody, part only; not given: Anti-NGF variable domains, not shown: another chain or arm of the molecule)
Fc: B1 Fc with E20T, N206R, Y208H
B8: anti-NGF canine IgGB antibody, Fc variant A426H + D312P (antibody, part only; not given: Anti-NGF variable domains, not shown: another chain or arm of the molecule; small tags and cut ends)
Fc: B1 Fc with E20T, D82P, A198H
B9: anti-NGF canine IgGB antibody, Fc variant A426H + T286Y (antibody, part only; not given: anti-NGF variable domains and light chain, not shown: another chain or arm of the molecule; small tags and cut ends)
Fc: B1 Fc with E20T, T56Y, A198H
B10: anti-NGF canine IgGB antibody, Fc variant A426Y + T286L (antibody, part only; not given: Anti-NGF variable domains, not shown: another chain or arm of the molecule; small tags and cut ends)
Fc: B1 Fc with E20T, T56L, A198Y
B11: canine IgGB Fc (CH2-CH3) L252Y with N-terminal SASA tag (Fc fusion, part only; not given: SASA tag, not shown: another chain or arm of the molecule; small tags and cut ends)
Fc: B1 Fc with E20T, L22Y
B12: canine IgGB Fc (CH2-CH3) L252M with N-terminal SASA tag (Fc fusion, part only; not given: SASA tag, not shown: another chain or arm of the molecule; small tags and cut ends)
Fc: B1 Fc with E20T, L22M
B13: canine IgGB Fc (CH2-CH3) T286F with N-terminal SASA tag (Fc fusion, part only; not given: SASA tag, not shown: another chain or arm of the molecule; small tags and cut ends)
Fc: B1 Fc with E20T, T56F
B14: canine IgGB Fc (CH2-CH3) Y436H with N-terminal SASA tag (Fc fusion, part only; not given: SASA tag, not shown: another chain or arm of the molecule; small tags and cut ends)
Fc: B1 Fc with E20T, Y208H
B15: canine IgGB Fc (CH2-CH3) T286W with N-terminal SASA tag (Fc fusion, part only; not given: SASA tag, not shown: another chain or arm of the molecule; small tags and cut ends)
Fc: B1 Fc with E20T, T56W

target: canine FcRn (FcRn large subunit with canine beta-2-microglobulin) (canine); assay: SPR pH 5.5, SASA-Fc captured on BSA, FcRn 200 nM

| Binder | Kd | koff | kon |
| --- | --- | --- | --- |
| B1 | 2480 nM and 1660 nM | 0.284 s⁻¹ and 0.287 s⁻¹ | 114000 M⁻¹ s⁻¹ and 172000 M⁻¹ s⁻¹ |
| B2 | 2590 nM and 2840 nM | 0.258 s⁻¹ and 0.268 s⁻¹ | 99600 M⁻¹ s⁻¹ and 94300 M⁻¹ s⁻¹ |

target: canine FcRn (FcRn large subunit with canine beta-2-microglobulin) (canine); assay: SPR pH 6.0, IgG coupled to CM5, FcRn 50-800 nM

| Binder | Kd | koff | kon |
| --- | --- | --- | --- |
| B3 | 197 nM | 0.048 s⁻¹ | 244000 M⁻¹ s⁻¹ |
| B4 | 464 nM | 0.069 s⁻¹ | 149000 M⁻¹ s⁻¹ |
| B5 | 70.8 nM | 0.0181 s⁻¹ | 255000 M⁻¹ s⁻¹ |
| B6 | 421 nM | 0.0577 s⁻¹ | 137000 M⁻¹ s⁻¹ |
| B7 | 320 nM | 0.0838 s⁻¹ | 262000 M⁻¹ s⁻¹ |
| B8 | 376 nM | 0.0547 s⁻¹ | 145000 M⁻¹ s⁻¹ |
| B9 | 255 nM | 0.0409 s⁻¹ | 160000 M⁻¹ s⁻¹ |
| B10 | 327 nM | 0.0559 s⁻¹ | 171000 M⁻¹ s⁻¹ |

target: canine FcRn (FcRn large subunit with canine beta-2-microglobulin) (canine); assay: SPR pH 5.5, SASA-Fc captured on BSA, FcRn 200 nM; remark: another data set of the same source

| Binder | Kd | koff | kon |
| --- | --- | --- | --- |
| B11 | 98.7 nM and 114 nM | 0.0397 s⁻¹ and 0.041 s⁻¹ | 402000 M⁻¹ s⁻¹ and 358000 M⁻¹ s⁻¹ |
| B12 | 869 nM and 774 nM | 0.168 s⁻¹ and 0.169 s⁻¹ | 193000 M⁻¹ s⁻¹ and 218000 M⁻¹ s⁻¹ |

target: canine FcRn (FcRn large subunit with canine beta-2-microglobulin) (canine); assay: SPR pH 6.0, SASA-Fc captured on BSA, FcRn 200 nM

| Binder | Kd | koff | kon |
| --- | --- | --- | --- |
| B13 | 157 nM and 185 nM | 0.0527 s⁻¹ and 0.061 s⁻¹ | 336000 M⁻¹ s⁻¹ and 330000 M⁻¹ s⁻¹ |
| B14 | 447 nM and 532 nM | 0.134 s⁻¹ and 0.141 s⁻¹ | 300000 M⁻¹ s⁻¹ and 265000 M⁻¹ s⁻¹ |
| B15 | 127 nM and 118 nM | 0.0982 s⁻¹ and 0.112 s⁻¹ | 774000 M⁻¹ s⁻¹ and 945000 M⁻¹ s⁻¹ |

target: canine FcRn (FcRn large subunit with canine beta-2-microglobulin) (canine); assay: SPR pH 5.9, IgG coupled to C1 chip, 1:1 kinetic fit

| Binder | Kd | koff | kon |
| --- | --- | --- | --- |
| B4 | 35.8 nM | 0.0417 s⁻¹ | 1.16e+06 M⁻¹ s⁻¹ |
| B6 | 45.1 nM | 0.0497 s⁻¹ | 1.1e+06 M⁻¹ s⁻¹ |
| B8 | 40.5 nM | 0.0532 s⁻¹ | 1.31e+06 M⁻¹ s⁻¹ |
| B9 | 21.3 nM | 0.0286 s⁻¹ | 1.34e+06 M⁻¹ s⁻¹ |
| B10 | 42.3 nM | 0.0436 s⁻¹ | 1.03e+06 M⁻¹ s⁻¹ |

target: canine FcRn (FcRn large subunit with canine beta-2-microglobulin) (canine); assay: SPR pH 7.4, FcRn coupled at high density, IgG 400 nM

| Binder | Kd | kon | koff |
| --- | --- | --- | --- |
| B3 | 104 nM | 4.95e+08 M⁻¹ s⁻¹ |  |
| B4 | 1600 nM | 81200 M⁻¹ s⁻¹ | 0.13 s⁻¹ |
| B5 | 80.2 nM | 2.87e+06 M⁻¹ s⁻¹ | 0.23 s⁻¹ |
| B6 | 2900 nM | 58900 M⁻¹ s⁻¹ | 0.171 s⁻¹ |
| B7 | 382 nM | 666000 M⁻¹ s⁻¹ | 0.255 s⁻¹ |
| B8 | 722 nM | 217000 M⁻¹ s⁻¹ | 0.156 s⁻¹ |
| B9 | 940 nM | 136000 M⁻¹ s⁻¹ | 0.128 s⁻¹ |
| B10 | 1120 nM | 82300 M⁻¹ s⁻¹ | 0.092 s⁻¹ |

target: canine FcRn (FcRn large subunit with canine beta-2-microglobulin) (canine); assay: SPR pH 5.5, SASA-Fc captured on BSA, FcRn 100-800 nM

| Binder | Kd | koff | kon |
| --- | --- | --- | --- |
| B11 | 173 nM | 0.0476 s⁻¹ | 275000 M⁻¹ s⁻¹ |

target: canine FcRn (FcRn large subunit with canine beta-2-microglobulin) (canine); assay: SPR pH 6.0, SASA-Fc captured on BSA, FcRn 100-800 nM

| Binder | Kd | koff | kon |
| --- | --- | --- | --- |
| B13 | 616 nM | 0.19 s⁻¹ | 309000 M⁻¹ s⁻¹ |
| B14 | 386 nM | 0.145 s⁻¹ | 375000 M⁻¹ s⁻¹ |
| B15 | 565 nM | 0.195 s⁻¹ | 345000 M⁻¹ s⁻¹ |

From patent US20240327497A1
